Patent publication US20190194660, “INHIBITORS OF SRSF1 TO TREAT NEURODEGENERATIVE DISORDERS” (University of Sheffield, published 2019)

Assays:
ALYREF = ALYREF (Homo sapiens, UniProt Q86V81 Q86V81:1-257); test: UV crosslinking
MAGOH = MAGOH (UniProt P61326 P61326:1-146); test: UV crosslinking; negative control protein; conditions: tags: hexa-histidine, E. coli BL21(DE3)-RP; label: 5'-32P
From the text: (§1) (A,B) Protein:RNA UV crosslinking assays using purified recombinant proteins and 32P-end-radiolabeled G4C2×5 (A) and C4G2×5 (B) repeat RNA probes. Proteins are visualised on SDS-PAGE stained with Coomassie blue (left panels) and covalently linked RNA:protein complexes by autoradiography on Phospholmages (Right panels). UV exposure is indicated by +. […] Nuclei are stained in blue by DAPI. Scale bar: 3 μm;
(§2) We performed in vitro UV-crosslinking assays using purified recombinant proteins and synthetic G4C2×5 and C4G2×5 RNA probes to investigate direct protein:RNA interactions. […] Purified proteins were incubated with 5′-end 32P-radiolabelled G4C2×5 (FIG. 20a) or C4G2×5 (FIG. 20b) RNA probes prior to irradiation with UV where indicated (+) and resolved by SDS-PAGE.

[1] = biological target: T1, SRSF1-m4 (11-196 quadruple Arg to Ala mutant) (Homo sapiens, UniProt Q07955 SEQ:2-187); test: UV crosslinking; mutant position printed R93,94,117,118A in text, R90,93,117,118A in FIG. 13; conditions: tags: hexa-histidine, E. coli BL21(DE3)-RP; label: 5'-32P
T1 chain: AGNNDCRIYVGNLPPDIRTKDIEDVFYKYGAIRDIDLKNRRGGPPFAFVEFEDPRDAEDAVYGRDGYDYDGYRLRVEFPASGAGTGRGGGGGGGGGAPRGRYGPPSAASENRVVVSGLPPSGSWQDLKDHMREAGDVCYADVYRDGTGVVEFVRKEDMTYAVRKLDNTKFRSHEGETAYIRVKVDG
From the text: (§3) Histone H3 is used to check for potential nuclear contamination. (g) Cytoplasmic and total G4C2-repeat sense transcript levels were normalized to Tub84b levels in G4C2×36+Ctrl-RNAi or G4C2×36+SRSF1⁷⁶-RNAi Drosophila in triplicate experiments prior to plotting as a ratio to account for potential changes in mRNA transcription/stability (mean±SEM; paired t-test; N (qRT-PCR reactions)=3).
(§4) N2A cells were transfected with FLAG control, FLAG-tagged SRSF1 or FLAG-tagged SRSF1-m4 and various lengths of sense or antisense repeat transcript constructs prior to fixing of ribonucleoprotein complexes. Cell extracts were then subjected to anti-FLAG immunoprecipitation under the same conditions used in the co-immunoprecipitation of NXF1 (FIG. 6g) prior to the qRT-PCR analysis of SRSF1-crosslinked RNA molecules.

SRSF1 (11-196) = SRSF1 (11-196) (Homo sapiens, UniProt Q07955 SEQ:11-196); test: UV crosslinking; no signal without UV; conditions: tags: hexa-histidine, E. coli BL21(DE3)-RP; label: 5'-32P
From the text: as §1, §2

[2] = biological target: T1, SRSF1-m4 (11-196 quadruple Arg to Ala …); test: UV crosslinking; conditions: tags: hexa-histidine, E. coli BL21(DE3)-RP; label: 5'-32P
From the text: as §3, §4

MAGOH, sequence (P61326 whole entry, one chain of several): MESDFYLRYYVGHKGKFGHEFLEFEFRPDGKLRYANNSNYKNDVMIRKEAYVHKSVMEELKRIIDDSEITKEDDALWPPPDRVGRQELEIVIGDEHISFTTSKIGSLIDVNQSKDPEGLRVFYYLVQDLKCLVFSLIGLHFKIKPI

Row | Binder | binding result (ALYREF) | binding result (MAGOH) | binding result [1] | binding result (SRSF1 (11-196)) | binding result [2]
1 | GGGGCCGGGGCCGGGGCCGGGGCCGGGGCC (ssRNA) [G4C2x5 RNA] | binds | no binding | binds | binds | 
2 | CCCCGGCCCCGGCCCCGGCCCCGGCCCCGG (ssRNA) [C4G2x5 RNA] | binds | no binding |  | binds | binds
